{
  "source": "patent US20130005646A1",
  "about": "(Novo Nordisk, published 2013)",
  "key": {"[1]": {"molecular_target": "T1, human calcitonin (a) receptor (human, UniProt P30988 25-474)", "T1 sequence (looked up)": "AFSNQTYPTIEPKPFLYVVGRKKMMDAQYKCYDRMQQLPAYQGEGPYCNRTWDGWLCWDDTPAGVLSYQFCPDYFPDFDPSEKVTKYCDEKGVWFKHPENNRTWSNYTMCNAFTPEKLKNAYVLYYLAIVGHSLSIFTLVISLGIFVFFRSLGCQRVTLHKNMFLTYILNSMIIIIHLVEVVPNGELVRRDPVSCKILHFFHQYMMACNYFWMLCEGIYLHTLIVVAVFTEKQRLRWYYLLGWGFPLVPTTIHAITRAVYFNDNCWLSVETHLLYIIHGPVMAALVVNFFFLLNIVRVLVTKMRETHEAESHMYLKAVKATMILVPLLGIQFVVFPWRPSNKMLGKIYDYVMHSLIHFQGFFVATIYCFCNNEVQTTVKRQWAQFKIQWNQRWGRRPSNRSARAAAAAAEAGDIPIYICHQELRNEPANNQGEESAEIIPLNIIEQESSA", "assay": "cell-based or functional assay"}, "[2]": {"molecular_target": "T2, human amylin 3(a) receptor (human calcitonin receptor + RAMP-3) (human, UniProt P30988 25-474; O60896 24-148)", "T2 sequence (looked up) 1": "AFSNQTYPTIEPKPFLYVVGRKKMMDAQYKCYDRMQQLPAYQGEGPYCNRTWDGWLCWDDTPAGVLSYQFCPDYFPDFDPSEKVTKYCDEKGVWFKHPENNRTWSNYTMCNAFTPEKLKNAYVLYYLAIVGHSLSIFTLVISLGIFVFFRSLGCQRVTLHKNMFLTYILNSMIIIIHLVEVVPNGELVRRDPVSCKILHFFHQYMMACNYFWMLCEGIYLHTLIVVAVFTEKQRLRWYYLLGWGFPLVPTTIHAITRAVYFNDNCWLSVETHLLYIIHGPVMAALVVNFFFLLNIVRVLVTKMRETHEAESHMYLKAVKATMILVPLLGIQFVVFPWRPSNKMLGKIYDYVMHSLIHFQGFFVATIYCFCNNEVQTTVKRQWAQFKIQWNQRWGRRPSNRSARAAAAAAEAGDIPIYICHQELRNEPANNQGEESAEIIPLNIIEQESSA", "T2 sequence (looked up) 2": "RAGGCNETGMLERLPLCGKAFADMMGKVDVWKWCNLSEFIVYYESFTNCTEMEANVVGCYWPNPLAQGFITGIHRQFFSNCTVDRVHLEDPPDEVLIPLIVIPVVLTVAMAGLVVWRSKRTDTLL", "assay": "cell-based or functional assay"}},
  "note": "Starred links: 1 amine or outer side, 2 acyl side, 3 side chain; linkers in the order of their positions; H or OH if unused. Positions of bridges follow the written chain, without caps; N, C: chain ends. *: point of attachment. C20 diacid = O=C(O)CCCCCCCCCCCCCCCCCCC(=O)*; γGlu = O=C(O)[C@H](CCC(=O)[*:2])N[*:1]",
  "data": [
    {"binder": "{C20 diacid-γGlu}-HHHCHTATCATQRLAEFLHHSSNNFGPILPHTNVGSHTY-NH2 (disulfide 4-9; SMILES CC[C@H](C)[C@H](NC(=O)[C@@H]1CCCN1C(=O)CNC(=O)[C@H](Cc1ccccc1)NC(=O)[C@H](CC(N)=O)NC(=O)[C@H](CC(N)=O)NC(=O)[C@H](CO)NC(=O)[C@H](CO)NC(=O)[C@H](Cc1c[nH]cn1)NC(=O)[C@H](Cc1c[nH]cn1)NC(=O)[C@H](CC(C)C)NC(=O)[C@H](Cc1ccccc1)NC(=O)[C@H](CCC(=O)O)NC(=O)[C@H](C)NC(=O)[C@H](CC(C)C)NC(=O)[C@H](CCCNC(=N)N)NC(=O)[C@H](CCC(N)=O)NC(=O)[C@@H](NC(=O)[C@H](C)NC(=O)[C@@H]1CSSC[C@H](NC(=O)[C@H](Cc2c[nH]cn2)NC(=O)[C@H](Cc2c[nH]cn2)NC(=O)[C@H](Cc2c[nH]cn2)NC(=O)CC[C@H](NC(=O)CCCCCCCCCCCCCCCCCCC(=O)O)C(=O)O)C(=O)N[C@@H](Cc2c[nH]cn2)C(=O)N[C@@H]([C@@H](C)O)C(=O)N[C@@H](C)C(=O)N[C@@H]([C@@H](C)O)C(=O)N1)[C@@H](C)O)C(=O)N[C@@H](CC(C)C)C(=O)N1CCC[C@H]1C(=O)N[C@@H](Cc1c[nH]cn1)C(=O)N[C@H](C(=O)N[C@@H](CC(N)=O)C(=O)N[C@H](C(=O)NCC(=O)N[C@@H](CO)C(=O)N[C@@H](Cc1c[nH]cn1)C(=O)N[C@H](C(=O)N[C@@H](Cc1ccc(O)cc1)C(N)=O)[C@@H](C)O)C(C)C)[C@@H](C)O)", "values": [
      {"measurement": "CTa receptor human EC50", "setting": "[1]", "value": 0.484, "unit": "nM"},
      {"measurement": "Amylin receptor human EC50", "setting": "[2]", "value": 1.03, "unit": "nM"}
    ]},
    {"binder": "{C20 diacid-γGlu}-HHHCNTATCATQRLAEFLHHSSNNFGPILPHTNVGSHTY-NH2 (disulfide 4-9; SMILES CC[C@H](C)[C@H](NC(=O)[C@@H]1CCCN1C(=O)CNC(=O)[C@H](Cc1ccccc1)NC(=O)[C@H](CC(N)=O)NC(=O)[C@H](CC(N)=O)NC(=O)[C@H](CO)NC(=O)[C@H](CO)NC(=O)[C@H](Cc1c[nH]cn1)NC(=O)[C@H](Cc1c[nH]cn1)NC(=O)[C@H](CC(C)C)NC(=O)[C@H](Cc1ccccc1)NC(=O)[C@H](CCC(=O)O)NC(=O)[C@H](C)NC(=O)[C@H](CC(C)C)NC(=O)[C@H](CCCNC(=N)N)NC(=O)[C@H](CCC(N)=O)NC(=O)[C@@H](NC(=O)[C@H](C)NC(=O)[C@@H]1CSSC[C@H](NC(=O)[C@H](Cc2c[nH]cn2)NC(=O)[C@H](Cc2c[nH]cn2)NC(=O)[C@H](Cc2c[nH]cn2)NC(=O)CC[C@H](NC(=O)CCCCCCCCCCCCCCCCCCC(=O)O)C(=O)O)C(=O)N[C@@H](CC(N)=O)C(=O)N[C@@H]([C@@H](C)O)C(=O)N[C@@H](C)C(=O)N[C@@H]([C@@H](C)O)C(=O)N1)[C@@H](C)O)C(=O)N[C@@H](CC(C)C)C(=O)N1CCC[C@H]1C(=O)N[C@@H](Cc1c[nH]cn1)C(=O)N[C@H](C(=O)N[C@@H](CC(N)=O)C(=O)N[C@H](C(=O)NCC(=O)N[C@@H](CO)C(=O)N[C@@H](Cc1c[nH]cn1)C(=O)N[C@H](C(=O)N[C@@H](Cc1ccc(O)cc1)C(N)=O)[C@@H](C)O)C(C)C)[C@@H](C)O)", "values": [
      {"measurement": "CTa receptor human EC50", "setting": "[1]", "value": 0.198, "unit": "nM"},
      {"measurement": "Amylin receptor human EC50", "setting": "[2]", "value": 0.272, "unit": "nM"}
    ]},
    {"binder": "{C20 diacid-γGlu}-ECNTATCATQRLAEFLHRSSNNFGPILPPTNVGSNTY-NH2 (disulfide 2-7; SMILES CC[C@H](C)[C@H](NC(=O)[C@@H]1CCCN1C(=O)CNC(=O)[C@H](Cc1ccccc1)NC(=O)[C@H](CC(N)=O)NC(=O)[C@H](CC(N)=O)NC(=O)[C@H](CO)NC(=O)[C@H](CO)NC(=O)[C@H](CCCNC(=N)N)NC(=O)[C@H](Cc1c[nH]cn1)NC(=O)[C@H](CC(C)C)NC(=O)[C@H](Cc1ccccc1)NC(=O)[C@H](CCC(=O)O)NC(=O)[C@H](C)NC(=O)[C@H](CC(C)C)NC(=O)[C@H](CCCNC(=N)N)NC(=O)[C@H](CCC(N)=O)NC(=O)[C@@H](NC(=O)[C@H](C)NC(=O)[C@@H]1CSSC[C@H](NC(=O)[C@H](CCC(=O)O)NC(=O)CC[C@H](NC(=O)CCCCCCCCCCCCCCCCCCC(=O)O)C(=O)O)C(=O)N[C@@H](CC(N)=O)C(=O)N[C@@H]([C@@H](C)O)C(=O)N[C@@H](C)C(=O)N[C@@H]([C@@H](C)O)C(=O)N1)[C@@H](C)O)C(=O)N[C@@H](CC(C)C)C(=O)N1CCC[C@H]1C(=O)N1CCC[C@H]1C(=O)N[C@H](C(=O)N[C@@H](CC(N)=O)C(=O)N[C@H](C(=O)NCC(=O)N[C@@H](CO)C(=O)N[C@@H](CC(N)=O)C(=O)N[C@H](C(=O)N[C@@H](Cc1ccc(O)cc1)C(N)=O)[C@@H](C)O)C(C)C)[C@@H](C)O)", "note": "[N-alpha-[(S)-4-Carboxy-4-(19-carboxynonadecanoylamino)butyryl]-[Glu1,Glu14,His17,Arg18]-pramlintide]", "values": [
      {"measurement": "CTa receptor human EC50", "setting": "[1]", "value": 0.753, "unit": "nM"},
      {"measurement": "Amylin receptor human EC50", "setting": "[2]", "value": 0.174, "unit": "nM"}
    ]},
    {"binder": "{C20 diacid-γGlu}-CNTATCATQRLAEFLHHSSNNFGPILPPTNVGSNTY-NH2 (disulfide 1-6; SMILES CC[C@H](C)[C@H](NC(=O)[C@@H]1CCCN1C(=O)CNC(=O)[C@H](Cc1ccccc1)NC(=O)[C@H](CC(N)=O)NC(=O)[C@H](CC(N)=O)NC(=O)[C@H](CO)NC(=O)[C@H](CO)NC(=O)[C@H](Cc1c[nH]cn1)NC(=O)[C@H](Cc1c[nH]cn1)NC(=O)[C@H](CC(C)C)NC(=O)[C@H](Cc1ccccc1)NC(=O)[C@H](CCC(=O)O)NC(=O)[C@H](C)NC(=O)[C@H](CC(C)C)NC(=O)[C@H](CCCNC(=N)N)NC(=O)[C@H](CCC(N)=O)NC(=O)[C@@H](NC(=O)[C@H](C)NC(=O)[C@@H]1CSSC[C@H](NC(=O)CC[C@H](NC(=O)CCCCCCCCCCCCCCCCCCC(=O)O)C(=O)O)C(=O)N[C@@H](CC(N)=O)C(=O)N[C@@H]([C@@H](C)O)C(=O)N[C@@H](C)C(=O)N[C@@H]([C@@H](C)O)C(=O)N1)[C@@H](C)O)C(=O)N[C@@H](CC(C)C)C(=O)N1CCC[C@H]1C(=O)N1CCC[C@H]1C(=O)N[C@H](C(=O)N[C@@H](CC(N)=O)C(=O)N[C@H](C(=O)NCC(=O)N[C@@H](CO)C(=O)N[C@@H](CC(N)=O)C(=O)N[C@H](C(=O)N[C@@H](Cc1ccc(O)cc1)C(N)=O)[C@@H](C)O)C(C)C)[C@@H](C)O)", "note": "[N-alpha-[(S)-4-Carboxy-4-(19-carboxynonadecanoylamino)butyryl]-[des1,Glu14,His17]-pramlintide]", "values": [
      {"measurement": "CTa receptor human EC50", "setting": "[1]", "value": 0.259, "unit": "nM"},
      {"measurement": "Amylin receptor human EC50", "setting": "[2]", "value": 0.179, "unit": "nM"}
    ]},
    {"binder": "{C20 diacid-γGlu}-ECNTATCATQRLAEFLHHSSNNFGPILPPTNVGSNTY-NH2 (disulfide 2-7; SMILES CC[C@H](C)[C@H](NC(=O)[C@@H]1CCCN1C(=O)CNC(=O)[C@H](Cc1ccccc1)NC(=O)[C@H](CC(N)=O)NC(=O)[C@H](CC(N)=O)NC(=O)[C@H](CO)NC(=O)[C@H](CO)NC(=O)[C@H](Cc1c[nH]cn1)NC(=O)[C@H](Cc1c[nH]cn1)NC(=O)[C@H](CC(C)C)NC(=O)[C@H](Cc1ccccc1)NC(=O)[C@H](CCC(=O)O)NC(=O)[C@H](C)NC(=O)[C@H](CC(C)C)NC(=O)[C@H](CCCNC(=N)N)NC(=O)[C@H](CCC(N)=O)NC(=O)[C@@H](NC(=O)[C@H](C)NC(=O)[C@@H]1CSSC[C@H](NC(=O)[C@H](CCC(=O)O)NC(=O)CC[C@H](NC(=O)CCCCCCCCCCCCCCCCCCC(=O)O)C(=O)O)C(=O)N[C@@H](CC(N)=O)C(=O)N[C@@H]([C@@H](C)O)C(=O)N[C@@H](C)C(=O)N[C@@H]([C@@H](C)O)C(=O)N1)[C@@H](C)O)C(=O)N[C@@H](CC(C)C)C(=O)N1CCC[C@H]1C(=O)N1CCC[C@H]1C(=O)N[C@H](C(=O)N[C@@H](CC(N)=O)C(=O)N[C@H](C(=O)NCC(=O)N[C@@H](CO)C(=O)N[C@@H](CC(N)=O)C(=O)N[C@H](C(=O)N[C@@H](Cc1ccc(O)cc1)C(N)=O)[C@@H](C)O)C(C)C)[C@@H](C)O)", "note": "[N-alpha-[(S)-4-Carboxy-4-(19-carboxynonadecanoylamino)butyryl]-[Glu1,Glu14,His17]-pramlintide]", "values": [
      {"measurement": "CTa receptor human EC50", "setting": "[1]", "value": 0.657, "unit": "nM"},
      {"measurement": "Amylin receptor human EC50", "setting": "[2]", "value": 0.377, "unit": "nM"}
    ]}
  ]
}
